Among the data in patent US20230122862A1 are EC50 values, retold here.

This test concerns the target CD23 coated on ELISA plates (UniProt P06734). Kind of test: ELISA, CD23 coated, pre-formed mAb:IgE complex added, anti-human IgG Fc-HRP detection.

As a reminder, the EC50 is the concentration that produces a half-maximal response. On to “pre-formed UB-221:IgE complex (from UniProt P01854 1-428)”, for which the half-maximal effective concentration (EC50) is 0.0416 µg/mL.
